In patent US20240301062A1:

Assays:
[1] = molecular target: mouse CLDN6 (mouse) (UniProt Q9Z262); test: flow cytometry, CHOK1/mouse CLDN6-GFP cells
[2] = molecular target: cyno CLDN6 (cyno); test: flow cytometry, CHOK1/Cyno CLDN6-GFP cells
[3] = molecular target: human claudin 9 (CLDN9) (human) (UniProt O95484); test: flow cytometry, CHOK1/human CLDN9-GFP cells
[4] = molecular target: human claudin 6 (CLDN6) (human) (UniProt P56747); test: flow cytometry, PA-1 cells (endogenous CLDN6)
[5] = molecular target: human claudin 6 (CLDN6) (human) (UniProt P56747); test: flow cytometry, CHOK1/human CLDN6-GFP cells

human claudin 6 (CLDN6) (human), sequence (P56747 whole entry): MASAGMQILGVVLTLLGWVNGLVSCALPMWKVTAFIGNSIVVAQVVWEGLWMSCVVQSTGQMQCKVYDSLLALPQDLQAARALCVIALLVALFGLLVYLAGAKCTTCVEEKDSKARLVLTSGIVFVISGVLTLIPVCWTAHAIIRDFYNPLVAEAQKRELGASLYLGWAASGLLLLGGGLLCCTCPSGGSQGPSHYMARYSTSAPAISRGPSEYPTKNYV
human claudin 9 (CLDN9) (human), sequence (O95484 whole entry): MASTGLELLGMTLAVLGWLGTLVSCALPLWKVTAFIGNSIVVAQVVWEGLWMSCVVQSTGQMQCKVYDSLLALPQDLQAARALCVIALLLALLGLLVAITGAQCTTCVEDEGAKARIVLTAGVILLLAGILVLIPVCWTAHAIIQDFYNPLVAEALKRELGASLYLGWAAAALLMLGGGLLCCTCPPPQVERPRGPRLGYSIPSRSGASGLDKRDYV
mouse CLDN6 (mouse), sequence (Q9Z262 whole entry): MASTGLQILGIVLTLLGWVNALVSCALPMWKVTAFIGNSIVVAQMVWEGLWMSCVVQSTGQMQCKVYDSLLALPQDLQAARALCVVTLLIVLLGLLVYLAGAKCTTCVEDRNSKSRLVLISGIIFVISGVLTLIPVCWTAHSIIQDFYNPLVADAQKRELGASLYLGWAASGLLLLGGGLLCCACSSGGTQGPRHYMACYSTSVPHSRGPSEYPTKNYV

**Q.** For Human IgG1 isotype Ctrl. (antibody), which Emax (MFI) [1] is on record?
**A.** 41.8 MFI

**Q.** What about the Emax (MFI) [2] of the same substance?
**A.** 225 MFI

**Q.** What about the Emax (MFI) [3] of the same substance?
**A.** 26.9 MFI

**Q.** What about the Emax (MFI) [4] of the same substance?
**A.** 34 MFI

**Q.** What about the Emax (MFI) [5] of the same substance?
**A.** 31.1 MFI
